Here are results for one molecule from patent US20250019435A1 (ALBERT EINSTEIN COLLEGE OF MEDICINE, published 2025).

Test [1] deals with T1, D0-deleted KIR2DL5 expressed on 3T3 cells (human, UniProt Q8N109 119-375).
T1 construct: the signal peptide 1-21 is left out; also called KIR2DL5 dD0; DO-deleted KIR2DL5
The test is described as follows: flow cytometry, transduced 3T3 cells. As to the method:
(§1) FIG. 8A-8D: Generation and characterization of anti-KIR2DL5-specific mAbs. (A) The specificity of anti-KIR2DL5 mAb clone F8B30. 3T3 cells transduced with indicated KIR family members were stained with 5 μg/mL of F8B30 (open) or mIgG1 (shaded). (B) 3T3 cells transduced with DO-deleted (KIR2DL5 dD0) or D2-deleted KIR2DL5 (KIR2DL5 dD2) were stained with 5 μg/mL of clone F8B30 or commercial clone UP-R1. (C) Anti-KIR2DL5 mAb clone F8B30 recognized different KIR2DL5A and 5B alleles. 3T3 cells transduced with indicated alleles were stained with 5 μg/mL of F8B30 or UP-R1 (open) or mIgG1 (shaded). (D) Anti-KIR2DL5 mAb clone F8B30 recognized different KIR2DL5 DO domain variants. 3T3 cells transduced with indicated DO variants were stained with 0.025 μg/mL of F8B30 or UP-R1 (open) or mIgG1 (shaded). In A-D, data are representative of 2 independent experiments.
Background: In flow cytometry, cells or beads pass a laser one at a time.

In test [2] the target is T2, KIR2DL5-Ig fusion protein (KIR2DL5 extracellular domain fused to human IgG1 Fc) (human, UniProt Q8N109 22-240).
T2 construct: A D0-only fusion (H22-A128) also exists; also called KIR2DL5-human Ig fusion protein; KIR2DL5 DO-D2-Ig; not shown: human IgG1 Fc tag
The test is described as follows: BLI, Octet RED96; KIR2DL5-Ig captured on anti-human Fc biosensors, mAb in solution; global 1:1 fit. As for the experimental part:
Biolayer interferometry. The affinities of anti-KIR2DL5 mAbs were analyzed by biolayer interferometry using an Octet RED96 system (ForteBio, Pall LLC). Briefly, anti-human Fc capture biosensors (ForteBio, Pall LLC) were preloaded with KIR2DL5-Ig and then dipped into a solution containing mAb at 2-fold serial dilutions (from 200 to 1.5 μg/mL). Data were analyzed using Forte Pall (Port Washington, New York, USA) software 9.0. The global data fitting to a 1:1 binding model was used to estimate values for the Kₒₙ (association rate constant), Koff (dissociation rate constant), and KD (equilibrium dissociation constant).
Background: In BLI a coated tip is dipped into the sample, and binding shifts an interference pattern.

Test [3] addresses T3, KIR2DL5A*005 allele expressed on 3T3 cells (human).
T3 construct: also called 2D5A*005
The test is described as follows: flow cytometry, transduced 3T3 cells, mAb 5 µg/mL. As to the method: as §1

Test [4] deals with T4, KIR2DL5 wild type (KIR2DL5A*001) expressed on cells (human, UniProt Q8N109 22-375).
T4 construct: UniProtKB Q8N109 and NP_065396.1 are printed for this entry; In the SHP-1/SHP-2 co-immunoprecipitation the cells were treated with pervanadate and the receptor was tyrosine-phosphorylated; also called KIR2DL5/3T3; WT KIR2DL5
The test is described as follows: flow cytometry, blocking: KIR2DL5/3T3 cells preincubated with serial F8B30, then 20 µg/mL PVR-Ig. As for the experimental part:
Specifically, a cell-based binding assay was performed by incubating PVR-Ig fusion protein with KIR2DL5- or KIR2DL4-expressing 3T3 cells. Conversely, KIR2DL5 was selectively bound by PVR, but not by CD112 (also known as nectin-2), another ligand for TIGIT and DNAM-1 in the nectin/nectin-like family (FIG. 10A). Furthermore, anti-KIR2DL5 mAb F8B30 blocked KIR2DL5-PVR interaction (EC₅₀=0.095 μM) (FIG. 10B). The specificity of KIR2DL5 binding to PVR was also evidenced by an intercellular interaction assay, in which 3T3 cells expressing PVR interacted with 3T3 cells expressing KIR2DL5, but not with cells expressing KIR3DL3 (FIG. 18B), a newly identified inhibitory receptor of HHLA2 (Zang, 2022; Wei 2021; Bhatt 2021).
Fusion protein cell binding assays. PVR-Ig, CD112-Ig, or hIgG (R&D Systems) was incubated with corresponding 3T3 cells on ice for 45 minutes, followed by incubation with APC- or PE-conjugated anti-human IgG Fc antibody (1:100; clone HP6017, BioLegend) on ice for 30 minutes. Cells were then acquired on an LSR II flow cytometer (BD Biosciences). In the anti-KIR2DL5 mAb blocking assay, KIR2DL5/3T3 cells were preincubated with a serial concentration of anti-KIR2DL5 mAb F8B30 or mIgG1 on ice for 30 minutes. After washing, the cells were then incubated with 20 μg/mL PVR-Ig or hIgG on ice for 45 minutes, followed by incubation with APC anti-human IgG Fc antibody on ice for 30 minutes. […]

The target in test [5] is KIR2DL5 D0 variant G97S expressed on 3T3 cells (human, UniProt Q8N109 22-375). The experiment in a line: flow cytometry on 3T3 cells expressing the KIR2DL5 D0 variant.
Test [6] has as its target KIR2DL5 D0 variant T46S expressed on 3T3 cells (human, UniProt Q8N109 22-375). Described as above.
Test [7] deals with KIR2DL5 D0 variant P112S expressed on 3T3 cells (human, UniProt Q8N109 22-375). Described as above.
Test [8] concerns the target KIR2DL5 D0 variant R52H expressed on 3T3 cells (human, UniProt Q8N109 22-375). The description is as above.

T2 sequence (Q8N109 22-240): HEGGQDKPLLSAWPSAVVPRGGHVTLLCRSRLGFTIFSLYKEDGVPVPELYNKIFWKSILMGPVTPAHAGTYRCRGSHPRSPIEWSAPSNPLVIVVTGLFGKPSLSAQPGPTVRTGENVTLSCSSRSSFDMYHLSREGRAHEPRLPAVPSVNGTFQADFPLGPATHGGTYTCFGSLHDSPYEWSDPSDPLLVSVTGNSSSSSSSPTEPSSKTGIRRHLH
Sequence of KIR2DL5 D0 variant T46S expressed on 3T3 cells (Q8N109 22-375 T46S): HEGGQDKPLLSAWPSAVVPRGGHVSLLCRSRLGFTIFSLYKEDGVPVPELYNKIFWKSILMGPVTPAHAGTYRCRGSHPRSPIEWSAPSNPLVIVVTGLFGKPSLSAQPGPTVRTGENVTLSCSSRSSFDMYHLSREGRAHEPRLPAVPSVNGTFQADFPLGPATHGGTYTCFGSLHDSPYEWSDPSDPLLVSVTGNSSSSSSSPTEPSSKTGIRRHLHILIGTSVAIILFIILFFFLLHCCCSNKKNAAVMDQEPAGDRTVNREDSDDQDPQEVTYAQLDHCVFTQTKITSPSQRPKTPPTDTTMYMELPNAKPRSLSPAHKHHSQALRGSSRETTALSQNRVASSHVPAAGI
T1 sequence (Q8N109 119-375, stated change not applied): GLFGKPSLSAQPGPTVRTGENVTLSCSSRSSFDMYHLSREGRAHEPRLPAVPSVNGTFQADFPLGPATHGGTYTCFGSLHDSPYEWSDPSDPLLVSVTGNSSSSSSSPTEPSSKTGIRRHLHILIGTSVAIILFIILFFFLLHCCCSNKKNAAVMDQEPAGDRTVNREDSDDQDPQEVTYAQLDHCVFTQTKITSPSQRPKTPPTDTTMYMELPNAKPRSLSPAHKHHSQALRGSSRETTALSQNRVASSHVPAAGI
Sequence of KIR2DL5 D0 variant P112S expressed on 3T3 cells (Q8N109 22-375 P112S): as the sequence (Q8N109 22-375 T46S) above, with S25T, P91S counted along it
T3 sequence (chain, as listed by the source): as the sequence (Q8N109 22-375 T46S) above, with S25T, N152D, G174S counted along it
Sequence of KIR2DL5 D0 variant R52H expressed on 3T3 cells (Q8N109 22-375 R52H): as the sequence (Q8N109 22-375 T46S) above, with S25T, R31H counted along it
Sequence of KIR2DL5 D0 variant G97S expressed on 3T3 cells (Q8N109 22-375 G97S): as the sequence (Q8N109 22-375 T46S) above, with S25T, G76S counted along it

B1: anti-KIR2DL5 mAb clone F8B30 (antibody, V domains shown)
VH: QIQLVQSGPELKKPGETVKISCKASGYTFTDYSMHWVKQAPGKGLKWMGWINTETGGPTYADDFKGRFAFSLETSATTAYLQINNLKNEDTATYFCSRDVDLYFDYWGQGTTLTVS
VL: DIQMTQSPASLSASVGETVTITCRTSENIYSYLAWYQQKQGKSPQLLVYNAKTLVEGVPSRFSGSGSGTQFSVKINSLQPEDFGNYYCQHHYGIPFTFGGGTKLEIK
notes: also called F8B30 (IgG1, κ)
Usually Kd stands for the constant that tells how readily two partners part at equilibrium. Low values mean a tighter complex, high ones a looser complex. The koff is the rate constant with which the complex falls apart. For orientation: kon means the rate constant with which the complex forms. Low readings indicate slow association, high ones fast association. As usually defined, the EC50 is the concentration at which the effect is half-maximal. Low values mean a more potent agent, high ones a less potent agent. Take B1: the binding result in test [1] is “no binding (tested: 5 µg/mL)”; in test [3], “binds”. In test [2], binding was put at a Kd of 0.723 nM. This molecule returned a koff in test [2] of 0.000444 s⁻¹. In test [2], this molecule gave an on-rate (kon) of 615000 M⁻¹ s⁻¹. In addition, the EC50 in test [4] was determined as 95 nM; in test [5], 43.6 nM; in test [6], 8.6 nM; in test [7] it was 9.4 nM; in test [8] it was 9.2 nM.
